Laboratory results taken from patent US20230406885A1, “CYCLIC PEPTIDES FOR TRAPPING INTERLEUKIN-1 BETA” (MERCK SHARP & DOHME LLC, priority 2022, published 2023).
*1 amine or outer side, *2 acyl side, *3 side chain or, on linkers, in order; H or OH if unused. Primed or numbered codes have the meaning given here. [ ]: non-standard residue; d: D form. aMeNle = (S)-2-amino-2-methylhexanoic acid (alpha-methyl-norleucine), CCCC[C@](C)(N[*:1])C(=O)[*:2]; Phe(4-(trans-4-COOH-cHex)) = N[C@@H](Cc1ccc([C@H]2CC[C@H](C(=O)O)CC2)cc1)C(=O)O; DapAc = (S)-3-acetamido-2-aminopropanoic acid, CC(=O)NC[C@H](N[*:1])C(=O)[*:2]; Phe(4-(4-Ac-piperazinyl)) = CC(=O)N1CCN(c2ccc(C[C@H](N)C(=O)O)cc2)CC1; Pro(trans-4-NH2) = O=C([C@@H]1C[C@@H](N[*:3])CN1[*:1])[*:2]; Bip(4'-COOH) = N[C@@H](Cc1ccc(-c2ccc(C(=O)O)cc2)cc1)C(=O)O; 1Nal(3S-Me) = C[C@@H](c1cccc2ccccc12)[C@H](N)C(=O)O; Ala(indolin-1-yl) = N[C@@H](CN1CCc2ccccc21)C(=O)O; Phe(4-COOH) = N[C@@H](Cc1ccc(C(=O)O)cc1)C(=O)O; h3Pal(5-CN) = N#Cc1cncc(CC[C@H](N)C(=O)O)c1; hTyr = N[C@@H](CCc1ccc(O)cc1)C(=O)O; hCha = N[C@@H](CCC1CCCCC1)C(=O)O; 4Pal = N[C@@H](Cc1ccncc1)C(=O)O; Cha = N[C@@H](CC1CCCCC1)C(=O)O; dαMeDab′ = not defined here; dDab = NCC[C@@H](N)C(=O)O; Nle = CCCC[C@H](N)C(=O)O; Orn = NCCC[C@H](N)C(=O)O; dDap = NC[C@@H](N)C(=O)O; dNMeA = CN[C@H](C)C(=O)O; Dab = NCC[C@H](N)C(=O)O; Dap = NC[C@H](N)C(=O)O

target: Recombinant human IL-1β (BioLegend 579404) (human, UniProt P01584 117-269); assay: cell-based or functional assay

| MRC5 IC50 | Binder |
| --- | --- |
| 9 pM | cyclo([Phe(4-(4-Ac-piperazinyl))]W[Phe(4-COOH)]G[Pro(trans-4-NH2)][1Nal(3S-Me)]D[dNMeA]G[Bip(4'-COOH)][Orn]L[dA][hCha]) (SMILES CC(=O)N1CCN(c2ccc(C[C@@H]3NC(=O)[C@H](CCC4CCCCC4)NC(=O)[C@@H](C)NC(=O)[C@H](CC(C)C)NC(=O)[C@H](CCCN)NC(=O)[C@H](Cc4ccc(-c5ccc(C(=O)O)cc5)cc4)NC(=O)CNC(=O)[C@@H](C)N(C)C(=O)[C@H](CC(=O)O)NC(=O)[C@H]([C@@H](C)c4cccc5ccccc45)NC(=O)[C@@H]4C[C@@H](N)CN4C(=O)CNC(=O)[C@H](Cc4ccc(C(=O)O)cc4)NC(=O)[C@H](Cc4c[nH]c5ccccc45)NC3=O)cc2)CC1) [SEQ ID NO: 209 (Example No. 209)] |
| 10 pM | cyclo([Phe(4-(4-Ac-piperazinyl))]W[Phe(4-COOH)]G[Pro(trans-4-NH2)][1Nal(3S-Me)]D[dNMeA]G[Bip(4'-COOH)][DapAc]L[dDap][h3Pal(5-CN)]) (SMILES CC(=O)NC[C@@H]1NC(=O)[C@H](Cc2ccc(-c3ccc(C(=O)O)cc3)cc2)NC(=O)CNC(=O)[C@@H](C)N(C)C(=O)[C@H](CC(=O)O)NC(=O)[C@H]([C@@H](C)c2cccc3ccccc23)NC(=O)[C@@H]2C[C@@H](N)CN2C(=O)CNC(=O)[C@H](Cc2ccc(C(=O)O)cc2)NC(=O)[C@H](Cc2c[nH]c3ccccc23)NC(=O)[C@H](Cc2ccc(N3CCN(C(C)=O)CC3)cc2)NC(=O)[C@H](CCc2cncc(C#N)c2)NC(=O)[C@@H](CN)NC(=O)[C@H](CC(C)C)NC1=O) [SEQ ID NO: 205 (Example No. 205)] |
| 29 pM | cyclo([Phe(4-(4-Ac-piperazinyl))]W[Phe(4-COOH)]G[Pro(trans-4-NH2)][1Nal(3S-Me)]D[dNMeA]G[Bip(4'-COOH)][Cha]G[dDab][hTyr]) (SMILES CC(=O)N1CCN(c2ccc(C[C@@H]3NC(=O)[C@H](CCc4ccc(O)cc4)NC(=O)[C@@H](CCN)NC(=O)CNC(=O)[C@H](CC4CCCCC4)NC(=O)[C@H](Cc4ccc(-c5ccc(C(=O)O)cc5)cc4)NC(=O)CNC(=O)[C@@H](C)N(C)C(=O)[C@H](CC(=O)O)NC(=O)[C@H]([C@@H](C)c4cccc5ccccc45)NC(=O)[C@@H]4C[C@@H](N)CN4C(=O)CNC(=O)[C@H](Cc4ccc(C(=O)O)cc4)NC(=O)[C@H](Cc4c[nH]c5ccccc45)NC3=O)cc2)CC1) [SEQ ID NO: 202 (Example No. 202)] |
| 11 pM | cyclo([Phe(4-(4-Ac-piperazinyl))]W[Phe(4-COOH)]G[Pro(trans-4-NH2)][1Nal(3S-Me)]D[dNMeA]G[Bip(4'-COOH)]KL[dA][hCha]) (SMILES CC(=O)N1CCN(c2ccc(C[C@@H]3NC(=O)[C@H](CCC4CCCCC4)NC(=O)[C@@H](C)NC(=O)[C@H](CC(C)C)NC(=O)[C@H](CCCCN)NC(=O)[C@H](Cc4ccc(-c5ccc(C(=O)O)cc5)cc4)NC(=O)CNC(=O)[C@@H](C)N(C)C(=O)[C@H](CC(=O)O)NC(=O)[C@H]([C@@H](C)c4cccc5ccccc45)NC(=O)[C@@H]4C[C@@H](N)CN4C(=O)CNC(=O)[C@H](Cc4ccc(C(=O)O)cc4)NC(=O)[C@H](Cc4c[nH]c5ccccc45)NC3=O)cc2)CC1) [SEQ ID NO: 207 (Example No. 207)] |
| 34 pM | cyclo([Phe(4-(4-Ac-piperazinyl))]W[Phe(4-COOH)]G[Pro(trans-4-NH2)][1Nal(3S-Me)]D[dNMeA]G[Bip(4'-COOH)][4Pal]G[dDab][aMeNle]) (SMILES CCCC[C@]1(C)NC(=O)[C@@H](CCN)NC(=O)CNC(=O)[C@H](Cc2ccncc2)NC(=O)[C@H](Cc2ccc(-c3ccc(C(=O)O)cc3)cc2)NC(=O)CNC(=O)[C@@H](C)N(C)C(=O)[C@H](CC(=O)O)NC(=O)[C@H]([C@@H](C)c2cccc3ccccc23)NC(=O)[C@@H]2C[C@@H](N)CN2C(=O)CNC(=O)[C@H](Cc2ccc(C(=O)O)cc2)NC(=O)[C@H](Cc2c[nH]c3ccccc23)NC(=O)[C@H](Cc2ccc(N3CCN(C(C)=O)CC3)cc2)NC1=O) [SEQ ID NO: 200 (Example No. 200)] |
| 18 pM | cyclo([Phe(4-(4-Ac-piperazinyl))]W[Phe(4-COOH)]G[Pro(trans-4-NH2)][1Nal(3S-Me)]D[dNMeA]G[Bip(4'-COOH)][LysAc]L[dA][h3Pal(5-CN)]) [SEQ ID NO: 208 (Example No. 208)] |
| 30 pM | cyclo([Phe(4-(4-Ac-piperazinyl))]W[Phe(4-COOH)]G[Pro(trans-4-NH2)][1Nal(3S-Me)]D[dNMeA]G[Bip(4'-COOH)][4Pal]G[dDab][hCha]) (SMILES CC(=O)N1CCN(c2ccc(C[C@@H]3NC(=O)[C@H](CCC4CCCCC4)NC(=O)[C@@H](CCN)NC(=O)CNC(=O)[C@H](Cc4ccncc4)NC(=O)[C@H](Cc4ccc(-c5ccc(C(=O)O)cc5)cc4)NC(=O)CNC(=O)[C@@H](C)N(C)C(=O)[C@H](CC(=O)O)NC(=O)[C@H]([C@@H](C)c4cccc5ccccc45)NC(=O)[C@@H]4C[C@@H](N)CN4C(=O)CNC(=O)[C@H](Cc4ccc(C(=O)O)cc4)NC(=O)[C@H](Cc4c[nH]c5ccccc45)NC3=O)cc2)CC1) [SEQ ID NO: 201 (Example No. 201)] |
| 12 pM | cyclo([Phe(4-(4-Ac-piperazinyl))]W[Phe(4-COOH)]G[Pro(trans-4-NH2)][1Nal(3S-Me)]D[dNMeA]G[Bip(4'-COOH)][Dab]L[dA][hCha]) (SMILES CC(=O)N1CCN(c2ccc(C[C@@H]3NC(=O)[C@H](CCC4CCCCC4)NC(=O)[C@@H](C)NC(=O)[C@H](CC(C)C)NC(=O)[C@H](CCN)NC(=O)[C@H](Cc4ccc(-c5ccc(C(=O)O)cc5)cc4)NC(=O)CNC(=O)[C@@H](C)N(C)C(=O)[C@H](CC(=O)O)NC(=O)[C@H]([C@@H](C)c4cccc5ccccc45)NC(=O)[C@@H]4C[C@@H](N)CN4C(=O)CNC(=O)[C@H](Cc4ccc(C(=O)O)cc4)NC(=O)[C@H](Cc4c[nH]c5ccccc45)NC3=O)cc2)CC1) [SEQ ID NO: 203 (Example No. 203)] |
| 9 pM | cyclo([Phe(4-(4-Ac-piperazinyl))]W[Phe(4-COOH)]G[Pro(trans-4-NH2)][1Nal(3S-Me)]D[dNMeA]G[Bip(4'-COOH)][DapAc]K[dA][h3Pal(5-CN)]) (SMILES CC(=O)NC[C@@H]1NC(=O)[C@H](Cc2ccc(-c3ccc(C(=O)O)cc3)cc2)NC(=O)CNC(=O)[C@@H](C)N(C)C(=O)[C@H](CC(=O)O)NC(=O)[C@H]([C@@H](C)c2cccc3ccccc23)NC(=O)[C@@H]2C[C@@H](N)CN2C(=O)CNC(=O)[C@H](Cc2ccc(C(=O)O)cc2)NC(=O)[C@H](Cc2c[nH]c3ccccc23)NC(=O)[C@H](Cc2ccc(N3CCN(C(C)=O)CC3)cc2)NC(=O)[C@H](CCc2cncc(C#N)c2)NC(=O)[C@@H](C)NC(=O)[C@H](CCCCN)NC1=O) [SEQ ID NO: 204 (Example No. 204)] |
| 30 pM | cyclo([Phe(4-(trans-4-COOH-cHex))]W[Phe(4-COOH)]G[Pro(trans-4-NH2)][1Nal(3S-Me)]D[dNMeA]G[Bip(4'-COOH)][4Pal]G[dDab][hCha]) (SMILES C[C@@H]1C(=O)NCC(=O)N[C@@H](Cc2ccc(-c3ccc(C(=O)O)cc3)cc2)C(=O)N[C@@H](Cc2ccncc2)C(=O)NCC(=O)N[C@H](CCN)C(=O)N[C@@H](CCC2CCCCC2)C(=O)N[C@@H](Cc2ccc([C@H]3CC[C@H](C(=O)O)CC3)cc2)C(=O)N[C@@H](Cc2c[nH]c3ccccc23)C(=O)N[C@@H](Cc2ccc(C(=O)O)cc2)C(=O)NCC(=O)N2C[C@H](N)C[C@H]2C(=O)N[C@@H]([C@@H](C)c2cccc3ccccc23)C(=O)N[C@@H](CC(=O)O)C(=O)N1C) [SEQ ID NO: 196 (Example No. 196)] |
| 24 pM | cyclo([Phe(4-(trans-4-COOH-cHex))]W[Phe(4-COOH)]G[Pro(trans-4-NH2)][1Nal(3S-Me)]D[dNMeA]G[Bip(4'-COOH)][4Pal]G[dDab][Nle]) (SMILES CCCC[C@@H]1NC(=O)[C@@H](CCN)NC(=O)CNC(=O)[C@H](Cc2ccncc2)NC(=O)[C@H](Cc2ccc(-c3ccc(C(=O)O)cc3)cc2)NC(=O)CNC(=O)[C@@H](C)N(C)C(=O)[C@H](CC(=O)O)NC(=O)[C@H]([C@@H](C)c2cccc3ccccc23)NC(=O)[C@@H]2C[C@@H](N)CN2C(=O)CNC(=O)[C@H](Cc2ccc(C(=O)O)cc2)NC(=O)[C@H](Cc2c[nH]c3ccccc23)NC(=O)[C@H](Cc2ccc([C@H]3CC[C@H](C(=O)O)CC3)cc2)NC1=O) [SEQ ID NO: 197 (Example No. 197)] |
| 24 pM | cyclo([Phe(4-(4-Ac-piperazinyl))]W[Phe(4-COOH)]G[Pro(trans-4-NH2)][1Nal(3S-Me)]D[dNMeA]G[Bip(4'-COOH)][4Pal]G[dαMeDab′][hCha]) [SEQ ID NO: 199 (Example No. 199)] |
| 21 pM | cyclo([Phe(4-(4-Ac-piperazinyl))]W[Phe(4-COOH)]G[Pro(trans-4-NH2)][1Nal(3S-Me)]D[dNMeA]G[Bip(4'-COOH)][Ala(indolin-1-yl)]G[dDab][hTyr]) (SMILES CC(=O)N1CCN(c2ccc(C[C@@H]3NC(=O)[C@H](CCc4ccc(O)cc4)NC(=O)[C@@H](CCN)NC(=O)CNC(=O)[C@H](CN4CCc5ccccc54)NC(=O)[C@H](Cc4ccc(-c5ccc(C(=O)O)cc5)cc4)NC(=O)CNC(=O)[C@@H](C)N(C)C(=O)[C@H](CC(=O)O)NC(=O)[C@H]([C@@H](C)c4cccc5ccccc45)NC(=O)[C@@H]4C[C@@H](N)CN4C(=O)CNC(=O)[C@H](Cc4ccc(C(=O)O)cc4)NC(=O)[C@H](Cc4c[nH]c5ccccc45)NC3=O)cc2)CC1) [SEQ ID NO: 198 (Example No. 198)] |
| 15 pM | cyclo([Phe(4-(4-Ac-piperazinyl))]W[Phe(4-COOH)]G[Pro(trans-4-NH2)][1Nal(3S-Me)]D[dNMeA]G[Bip(4'-COOH)][Dap]L[dA][hCha]) (SMILES CC(=O)N1CCN(c2ccc(C[C@@H]3NC(=O)[C@H](CCC4CCCCC4)NC(=O)[C@@H](C)NC(=O)[C@H](CC(C)C)NC(=O)[C@H](CN)NC(=O)[C@H](Cc4ccc(-c5ccc(C(=O)O)cc5)cc4)NC(=O)CNC(=O)[C@@H](C)N(C)C(=O)[C@H](CC(=O)O)NC(=O)[C@H]([C@@H](C)c4cccc5ccccc45)NC(=O)[C@@H]4C[C@@H](N)CN4C(=O)CNC(=O)[C@H](Cc4ccc(C(=O)O)cc4)NC(=O)[C@H](Cc4c[nH]c5ccccc45)NC3=O)cc2)CC1) [SEQ ID NO: 206 (Example No. 206)] |
